From article doi:10.1101/2022.04.29.490116
Like-named read-outs stand apart in the source and are kept apart here.

How the values were obtained:
[1] = target: StbA of plasmid R388, full length, C-terminally (His)6-tagged (enterobacterial plasmid R388); test: SEC
[2] = target: T1, StbA (Escherichia coli plasmid R388, UniProt Q6I6C4 1-141); test: EMSA
T1 sequence: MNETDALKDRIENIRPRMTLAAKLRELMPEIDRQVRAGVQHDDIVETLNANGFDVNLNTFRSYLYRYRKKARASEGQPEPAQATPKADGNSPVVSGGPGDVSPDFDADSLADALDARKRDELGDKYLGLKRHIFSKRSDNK

[3] = target: T2, StbA1-75 (Escherichia coli plasmid R388, UniProt Q6I6C4 1-75); test: EMSA
T2 sequence: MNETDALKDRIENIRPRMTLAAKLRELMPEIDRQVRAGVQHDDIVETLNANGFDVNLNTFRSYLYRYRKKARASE

[4] = target: T1, StbA; test: EMSA; remark: listed apart in the source
[5] = target: T1, StbA; test: EMSA; remark: listed apart in the source
[6] = target: T2, StbA1-75; test: EMSA; remark: listed apart in the source
[7] = target: T1, StbA; test: EMSA; remark: listed apart in the source
[8] = target: T1, StbA; test: EMSA; remark: listed apart in the source
[9] = target: T2, StbA1-75; test: EMSA; remark: listed apart in the source
[10] = target: T1, StbA; test: EMSA; remark: listed apart in the source

Molecule: StbA of plasmid R388, full length, C-terminally (His)6-tagged (natural protein)
- stoichiometry N [1]: 2

B1: stb5b (dsDNA)
DNA 1: TTGCCTGCATCATAGCTGTCCTATGACTGCATCACATTTGCATCATACATGCATTATTTC
DNA 2: GAAATAATGCATGTATGATGCAAATGTGATGCAGTCATAGGACAGCTATGATGCAGGCAA
- binding result [2]: binds

B2: stb3 (dsDNA)
DNA 1: TAGCTCATTCTGTTCTTGCTTGCTGCATCATCACTGCATCATAGCTGCATCATCAATGCCGATCTAGCTCATTACTGTTC
DNA 2: GAACAGTAATGAGCTAGATCGGCATTGATGATGCAGCTATGATGCAGTGATGATGCAGCAAGCAAGAACAGAATGAGCTA
- binding result [3]: binds
- binding result [4]: binds

B3: stb5a (dsDNA)
DNA 1: CCGTTTTAGCTCATTTTCTGCATCATTGTAGCACCATCATAGCATTATAGTTGCATCATTGCTGCACGATAACCCAATGC
DNA 2: GCATTGGGTTATCGTGCAGCAATGATGCAACTATAATGCTATGATGGTGCTACAATGATGCAGAAAATGAGCTAAAACGG
- binding result [5]: binds
- binding result [6]: binds

B4: stb0 (dsDNA)
DNA 1: CCTTAAACGGCCTATTGTTTCCAAGCGGAGTGACAACAAATGAAAGTAGCTGTGCTTAAGTATTCAACAAAGCCGCCGTC
DNA 2: GACGGCGGCTTTGTTGAATACTTAAGCACAGCTACTTTCATTTGTTGTCACTCCGCTTGGAAACAATAGGCCGTTTAAGG
- binding result [7]: no binding

B5: stb2 (dsDNA)
DNA 1: CCGTTCTAGCTCATTCTGTTCTTGCTTGCTGCATCATCACTGCATCATCCCAATGCCGATCTAGCTCATTACTGTTCTAT
DNA 2: ATAGAACAGTAATGAGCTAGATCGGCATTGGGATGATGCAGTGATGATGCAGCAAGCAAGAACAGAATGAGCTAGAACGG
- binding result [8]: binds
- binding result [9]: binds

B6: stb5 (dsDNA)
DNA 1: TCTGTTCTTGCTTGCTGCATCATCACTGCATCATCACTGCATCATCACTGCATCATCACTGCATCATATGCCGATCTAGC
DNA 2: GCTAGATCGGCATATGATGCAGTGATGATGCAGTGATGATGCAGTGATGATGCAGTGATGATGCAGCAAGCAAGAACAGA
- binding result [10]: binds
